For data set [1], the system named is anaphylactic shock induced by OVA (allergen). As to the kind of experiment: Prevention of anaphylactic shock: pretreatment, then OVA challenge. The class given is in vivo. The conditions noted are these: pretreatment 10 μg OVA/mouse iv weekly x3, challenge 10 μg OVA. The method, then:
The BALB/c female mice (5 weeks old) were randomly divided into FA-OVA group, OVA group and physiological saline group, with 10 mice in each group. FA-OVA or OVA or physiological saline of an equal volume was administered to the mice via tail vein injection at a dose of 10 μg OVA/mouse, once a week for a total of three times. One week after the last administration, each mouse was injected with 10 μg OVA (allergen) via tail vein. Changes in body temperature of the mice within 2 hours after OVA stimulation were recorded (FIG. 18). In the meanwhile, the serum was collected from the mice, and was measured by ELISA for the expression of OVA-specific antibodies in the serum (FIG. 19). […] Therefore, folate modification can effectively prevent anaphylactic shock induced by allergens.

The next data set concerns splenic B lymphocytes. The data set can be described thus: Splenic B lymphocyte proliferation (CD86) and differentiation (GL-7) after three weekly injections. The class given is in vivo, BALB/c female mice. The note with it: 10 μg/mouse tail vein, once a week, three times; one week after last administration. An excerpt: (§1) The role of folate modification in mediating humoral immunosuppression and in reducing Anti-Drug Antibodies (ADA) of biomacromolecular drugs was investragated by using ovalbumin (OVA) as a model protein. OVA has strong immunogenicity and can induce the body to produce an immune response. Repeated stimulation of mice by OVA can cause the mice to produce lots of specific antibodies. The BALB/c female mice (5 weeks old) were randomly divided into FA-OVA (folate-OVA complex. Example 1) group, OVA group and physiological saline control group, with 6 mice in each group. FA-OVA, OVA and physiological saline were administered to mice via tail vein injection at a dose of 10 μg/mouse, once a week, three times in total.
One week after the last administration, the spleen lymphocyte suspension was collected and subjected to flow cytometry for analysis of proliferation and differentiation of splenic B lymphocytes. CD86 was used as a marker for cell proliferation, and GL-7 was used as germinal center B-cell surface marker. FIGS. 11a and 11b provide the CD86 flow sorting graphs and statistical analysis results of mouse spleen lymphocytes, respectively. FIGS. 11c and 11d provide the GL7 flow sorting graphs and statistical analysis results of mouse spleen lymphocytes, respectively.

In the next data set the test system is OVA-specific antibodies. As to the kind of experiment: Serum OVA-specific antibodies by ELISA after three weekly injections. The class given is in vivo, BALB/c female mice. The note with it: 10 μg/mouse tail vein, once a week, three times; one week after last administration.
Excerpt: as §1
One week after the last administration, the serum of the mice was collected and was measured by ELISA for the expression of OVA-specific antibodies in the serum. The results are shown in FIG. 12, wherein FIGS. 12a, 12b, 12c and 12d show the results of OVA-specific IgE, IgG, IgG1 and IgG2a, respectively.

The test system of data set [2] is anaphylactic shock in OVA-sensitized mice. As to the kind of experiment: Treatment of anaphylactic shock: OVA-sensitized mice treated, then OVA challenge. The class given is in vivo, BALB/c female mice. The note with it: 4 μg/mouse iv every two days x3, challenge 25 μg OVA. The method, then:
The BALB/c female mice (5 weeks old) were subcutaneously injected with 10 μg OVA for sensitization, once a week, three times in total. One week after the last sensitization, the OVA-sensitized mice were injected with FA-OVA, OVA and physiological saline via tail vein at a dose of 4 μg/mouse, once every two days for three times in total. After the last administration, the mice were injected with 25 μg OVA (allergen) via tail vein. Changes in body temperature of the mice within 2 hours after the injection were recorded (FIG. 20). In the meanwhile, the serum was collected from the mice and was measured by ELISA for the level of the OVA-specific antibodies in the serum (FIG. 21). The mice without OVA sensitization but stimulated by tail vein injection of OVA served as the Naïve control group.

Data set [3] can be described thus: Water solubility (observation on preparation). The class given is physicochemical.
Data set [4] is described as follows: Blood routine analysis one week after last administration. The conditions noted are these: 10 μg/mouse tail vein weekly x3. The class given is in vivo, BALB/c female mice.
Excerpt: as §1
In addition, the whole blood of the mice was collected one week after the last administration for blood routine analysis.

Bounds are passed on as bounds.

In the case of “OVA: ovalbumin, model protein and allergen [reference compound]”, in data set [1], the “body temperature within 2 hours after OVA stimulation” value was “dropped significantly” and the “serum OVA-specific antibodies (IgE, IgG1, IgG2a) after challenge” value is recorded as “a large number of OVA-specific antibodies”. The “proliferation of B-cell (CD86) and differentiation into germinal center B-cell (GL-7)” value in the data set on splenic B lymphocytes was “proliferated significantly and differentiated into the germinal center B-cell”. Further, the “expression of OVA-specific antibodies in the serum (IgE, IgG, IgG1, IgG2a)” value in the data set with OVA-specific antibodies was “a large amount of OVA-specific antibodies”.

“FA-OVA: folate-modified ovalbumin complex, EDC coupling of folic acid to OVA”: in data set [1], the “body temperature within 2 hours after OVA stimulation” value is reported as “did not change significantly” and the “serum OVA-specific antibodies (IgE, IgG1, IgG2a) after challenge” value was “substantially comparable to the physiological saline group”. Moreover, the “proliferation of B-cell (CD86) and differentiation into germinal center B-cell (GL-7)” value in the data set with splenic B lymphocytes was “significantly inhibited”. Besides, in data set [2], the “effect of treatment on anaphylaxis (body temperature curve)” value was “desensitizing effect”; the “expressions of OVA-specific antibodies IgE, IgG1 and IgC2a in serum” value was “comparable to those in the physiological saline group and significantly decreased compared with those in the OVA group”; the “time for body temperature to return to normal after OVA challenge” value is ≤ 2 h. Also, the “expression of OVA-specific antibodies in the serum (IgE, IgG, IgG1, IgG2a)” value in the data set on OVA-specific antibodies is on record as “significantly inhibited”.

B1: FA-OVA: folate-modified ovalbumin complex, EDC coupling of folic acid to OVA (conjugate, UniProt P01012 2-386, looked up)
Ovalbumin: GSIGAASMEFCFDVFKELKVHHANENIFYCPIAIMSALAMVYLGAKDSTRTQINKVVRFDKLPGFGDSIEAQCGTSVNVHSSLRDILNQITKPNDVYSFSLASRLYAEERYPILPEYLQCVKELYRGGLEPINFQTAADQARELINSWVESQTNGIIRNVLQPSSVDSQTAMVLVNAIVFKGLWEKAFKDEDTQAMPFRVTEQESKPVQMMYQIGLFRVASMASEKMKILELPFASGTMSMLVLLPDEVSGLEQLESIINFEKLTEWTSSNVMEERKIKVYLPRMKMEEKYNLTSVLMAMGITDVFSSSANLSGISSAESLKISQAVHAAHAEINEAGREVVGSAEAGVDAASVSEEFRADHPFLFCIKHIATNAVLFFGRCVSP
modifications: folate via EDC coupling
Regarding B1, the water solubility result in data set [3] is on record as “easily soluble in water”. Moreover, in data set [4], the BASO is on record as 0 10*9/L, the HCT stood at 49.83 ± 4.53%, the HGB is given as 161.50 ± 9.26 g/L and the LYMPH is recorded as 2.78 ± 0.19 10*9/L. Further, in data set [4], the MCH was 16.28 ± 0.59 pg, the MCHC is 325.00 ± 12.35 g/L, the MCV is listed as 50.075 ± 1.37 fL and the MONO is on record as 0.035 ± 0.0058 10*9/L. In data set [4], the MPV is on record as 7.05 ± 0.058 fL, the NEYT was 0.94 ± 0.23 10*9/L, the NRBC is on record as 0.015 ± 0.013 10*9/L and the P-LCR is given as 4.35 ± 1.01%. Moreover, in data set [4], the PCT was 0.41 ± 0.042%, the PDW is recorded as 5.58 ± 0.096 fL, the PLT is reported as 586.50 ± 59.29 10*9/L and the RBC is recorded as 9.96 ± 0.89 10*12/L. Besides, in data set [4], the RDW-CV turned out to be 14.78 ± 0.50% and the WBC was 3.77 ± 0.42 10*9/L.

B2: OVA: ovalbumin, model protein and allergen (protein, UniProt P01012 2-386, looked up)
Ovalbumin: GSIGAASMEFCFDVFKELKVHHANENIFYCPIAIMSALAMVYLGAKDSTRTQINKVVRFDKLPGFGDSIEAQCGTSVNVHSSLRDILNQITKPNDVYSFSLASRLYAEERYPILPEYLQCVKELYRGGLEPINFQTAADQARELINSWVESQTNGIIRNVLQPSSVDSQTAMVLVNAIVFKGLWEKAFKDEDTQAMPFRVTEQESKPVQMMYQIGLFRVASMASEKMKILELPFASGTMSMLVLLPDEVSGLEQLESIINFEKLTEWTSSNVMEERKIKVYLPRMKMEEKYNLTSVLMAMGITDVFSSSANLSGISSAESLKISQAVHAAHAEINEAGREVVGSAEAGVDAASVSEEFRADHPFLFCIKHIATNAVLFFGRCVSP
Take B2: in data set [1] (10 mice per group), the “anaphylactic shock / death after OVA challenge” value is “two mice died”. Further, in data set [4], the BASO is given as 0 10*9/L, the HCT came to 52.15 ± 5.97%, the HGB is given as 169.25 ± 13.45 g/L and the LYMPH is reported as 2.58 ± 0.29 10*9/L. Moreover, in data set [4], the MCH is 16.08 ± 0.67 pg, the MCHC was determined as 325.75 ± 16.50 g/L, the MCV was determined as 49.43 ± 0.43 fL and the MONO is given as 0.035 ± 0.017 10*9/L. Besides, in data set [4], the MPV was 7.10 ± 0.14 fL, the NEYT is 0.80 ± 0.21 10*9/L, the NRBC is given as 0.025 ± 0.013 10*9/L and the P-LCR is 5.15 ± 1.48%. In data set [4], the PCT came out at 0.45 ± 0.016%, the PDW is reported as 5.53 ± 0.15 fL, the PLT is listed as 635.00 ± 36.59 10*9/L and the RBC is given as 10.55 ± 1.13 10*12/L. Besides, in data set [4], the RDW-CV was 14.63 ± 0.33% and the WBC is 3.43 ± 0.51 10*9/L.

Values taken from patent publication US20230381183A1, “USE OF FOLIC ACID AND FOLATE MODIFICATION IN INDUCING B-CELL IMMUNE TOLERANCE AND TARGETING mIgM-POSITIVELY-EXPRESSED B-CELL LYMPHOMA” (FUDAN UNIVERSITY, priority 2020, published 2023).
